Sequences and labels used below:
B1: C5A (XPA23) VL R31G (antibody, V domains shown)
VH: EVQLLESGGGLVQPGGSLRLSCAASGFTFSKYFMFWVRQAPGKGLEWVSVISPSGGMTRYADSVKGRFTISRDNSKNTLYLQMNSLRAEDTAVYYCARVGYGGNSDYWGQGTLVTVSS
VL: DIQMTQSPSSVSASVGDRLTIICRASQDINGWLAWYQQTPGNAPKLLIHSATSLQSGVPSRFSGSGSGTDFTLTINSLQPEDFATYYCQQADSFPLTFGGGTKVEIK
B2: C5A (XPA23) VL A51L (antibody, V domains shown)
VH: EVQLLESGGGLVQPGGSLRLSCAASGFTFSKYFMFWVRQAPGKGLEWVSVISPSGGMTRYADSVKGRFTISRDNSKNTLYLQMNSLRAEDTAVYYCARVGYGGNSDYWGQGTLVTVSS
VL: DIQMTQSPSSVSASVGDRLTIICRASQDINRWLAWYQQTPGNAPKLLIHSLTSLQSGVPSRFSGSGSGTDFTLTINSLQPEDFATYYCQQADSFPLTFGGGTKVEIK
B3: C5A (XPA23) VL R31F (antibody, V domains shown)
VH: EVQLLESGGGLVQPGGSLRLSCAASGFTFSKYFMFWVRQAPGKGLEWVSVISPSGGMTRYADSVKGRFTISRDNSKNTLYLQMNSLRAEDTAVYYCARVGYGGNSDYWGQGTLVTVSS
VL: DIQMTQSPSSVSASVGDRLTIICRASQDINFWLAWYQQTPGNAPKLLIHSATSLQSGVPSRFSGSGSGTDFTLTINSLQPEDFATYYCQQADSFPLTFGGGTKVEIK
B4: C5A (XPA23) VL H49W (antibody, V domains shown)
VH: EVQLLESGGGLVQPGGSLRLSCAASGFTFSKYFMFWVRQAPGKGLEWVSVISPSGGMTRYADSVKGRFTISRDNSKNTLYLQMNSLRAEDTAVYYCARVGYGGNSDYWGQGTLVTVSS
VL: DIQMTQSPSSVSASVGDRLTIICRASQDINRWLAWYQQTPGNAPKLLIWSATSLQSGVPSRFSGSGSGTDFTLTINSLQPEDFATYYCQQADSFPLTFGGGTKVEIK
B5: C5A (XPA23) VL S50A (antibody, V domains shown)
VH: EVQLLESGGGLVQPGGSLRLSCAASGFTFSKYFMFWVRQAPGKGLEWVSVISPSGGMTRYADSVKGRFTISRDNSKNTLYLQMNSLRAEDTAVYYCARVGYGGNSDYWGQGTLVTVSS
VL: DIQMTQSPSSVSASVGDRLTIICRASQDINRWLAWYQQTPGNAPKLLIHAATSLQSGVPSRFSGSGSGTDFTLTINSLQPEDFATYYCQQADSFPLTFGGGTKVEIK
B6: C5A (XPA23) VL S50I (antibody, V domains shown)
VH: EVQLLESGGGLVQPGGSLRLSCAASGFTFSKYFMFWVRQAPGKGLEWVSVISPSGGMTRYADSVKGRFTISRDNSKNTLYLQMNSLRAEDTAVYYCARVGYGGNSDYWGQGTLVTVSS
VL: DIQMTQSPSSVSASVGDRLTIICRASQDINRWLAWYQQTPGNAPKLLIHIATSLQSGVPSRFSGSGSGTDFTLTINSLQPEDFATYYCQQADSFPLTFGGGTKVEIK
B7: C5A (XPA23) VL H49F (antibody, V domains shown)
VH: EVQLLESGGGLVQPGGSLRLSCAASGFTFSKYFMFWVRQAPGKGLEWVSVISPSGGMTRYADSVKGRFTISRDNSKNTLYLQMNSLRAEDTAVYYCARVGYGGNSDYWGQGTLVTVSS
VL: DIQMTQSPSSVSASVGDRLTIICRASQDINRWLAWYQQTPGNAPKLLIFSATSLQSGVPSRFSGSGSGTDFTLTINSLQPEDFATYYCQQADSFPLTFGGGTKVEIK
B8: C5A (XPA23) VL S50G (antibody, V domains shown)
VH: EVQLLESGGGLVQPGGSLRLSCAASGFTFSKYFMFWVRQAPGKGLEWVSVISPSGGMTRYADSVKGRFTISRDNSKNTLYLQMNSLRAEDTAVYYCARVGYGGNSDYWGQGTLVTVSS
VL: DIQMTQSPSSVSASVGDRLTIICRASQDINRWLAWYQQTPGNAPKLLIHGATSLQSGVPSRFSGSGSGTDFTLTINSLQPEDFATYYCQQADSFPLTFGGGTKVEIK
B9: C5A (XPA23) VL R31W (antibody, V domains shown)
VH: EVQLLESGGGLVQPGGSLRLSCAASGFTFSKYFMFWVRQAPGKGLEWVSVISPSGGMTRYADSVKGRFTISRDNSKNTLYLQMNSLRAEDTAVYYCARVGYGGNSDYWGQGTLVTVSS
VL: DIQMTQSPSSVSASVGDRLTIICRASQDINWWLAWYQQTPGNAPKLLIHSATSLQSGVPSRFSGSGSGTDFTLTINSLQPEDFATYYCQQADSFPLTFGGGTKVEIK
B10: C5A (XPA23) VL H49A (antibody, V domains shown)
VH: EVQLLESGGGLVQPGGSLRLSCAASGFTFSKYFMFWVRQAPGKGLEWVSVISPSGGMTRYADSVKGRFTISRDNSKNTLYLQMNSLRAEDTAVYYCARVGYGGNSDYWGQGTLVTVSS
VL: DIQMTQSPSSVSASVGDRLTIICRASQDINRWLAWYQQTPGNAPKLLIASATSLQSGVPSRFSGSGSGTDFTLTINSLQPEDFATYYCQQADSFPLTFGGGTKVEIK
B11: C5A (XPA23) VL H49P (antibody, V domains shown)
VH: EVQLLESGGGLVQPGGSLRLSCAASGFTFSKYFMFWVRQAPGKGLEWVSVISPSGGMTRYADSVKGRFTISRDNSKNTLYLQMNSLRAEDTAVYYCARVGYGGNSDYWGQGTLVTVSS
VL: DIQMTQSPSSVSASVGDRLTIICRASQDINRWLAWYQQTPGNAPKLLIPSATSLQSGVPSRFSGSGSGTDFTLTINSLQPEDFATYYCQQADSFPLTFGGGTKVEIK
B12: C5A (XPA23) VL S50L (antibody, V domains shown)
VH: EVQLLESGGGLVQPGGSLRLSCAASGFTFSKYFMFWVRQAPGKGLEWVSVISPSGGMTRYADSVKGRFTISRDNSKNTLYLQMNSLRAEDTAVYYCARVGYGGNSDYWGQGTLVTVSS
VL: DIQMTQSPSSVSASVGDRLTIICRASQDINRWLAWYQQTPGNAPKLLIHLATSLQSGVPSRFSGSGSGTDFTLTINSLQPEDFATYYCQQADSFPLTFGGGTKVEIK
B13: C5A (XPA23) VL R31L (antibody, V domains shown)
VH: EVQLLESGGGLVQPGGSLRLSCAASGFTFSKYFMFWVRQAPGKGLEWVSVISPSGGMTRYADSVKGRFTISRDNSKNTLYLQMNSLRAEDTAVYYCARVGYGGNSDYWGQGTLVTVSS
VL: DIQMTQSPSSVSASVGDRLTIICRASQDINLWLAWYQQTPGNAPKLLIHSATSLQSGVPSRFSGSGSGTDFTLTINSLQPEDFATYYCQQADSFPLTFGGGTKVEIK
B14: C5A (XPA23) VL A51G (antibody, V domains shown)
VH: EVQLLESGGGLVQPGGSLRLSCAASGFTFSKYFMFWVRQAPGKGLEWVSVISPSGGMTRYADSVKGRFTISRDNSKNTLYLQMNSLRAEDTAVYYCARVGYGGNSDYWGQGTLVTVSS
VL: DIQMTQSPSSVSASVGDRLTIICRASQDINRWLAWYQQTPGNAPKLLIHSGTSLQSGVPSRFSGSGSGTDFTLTINSLQPEDFATYYCQQADSFPLTFGGGTKVEIK
B15: C5A (XPA23) VL A51V (antibody, V domains shown)
VH: EVQLLESGGGLVQPGGSLRLSCAASGFTFSKYFMFWVRQAPGKGLEWVSVISPSGGMTRYADSVKGRFTISRDNSKNTLYLQMNSLRAEDTAVYYCARVGYGGNSDYWGQGTLVTVSS
VL: DIQMTQSPSSVSASVGDRLTIICRASQDINRWLAWYQQTPGNAPKLLIHSVTSLQSGVPSRFSGSGSGTDFTLTINSLQPEDFATYYCQQADSFPLTFGGGTKVEIK
B16: C5A (XPA23) VL S50W (antibody, V domains shown)
VH: EVQLLESGGGLVQPGGSLRLSCAASGFTFSKYFMFWVRQAPGKGLEWVSVISPSGGMTRYADSVKGRFTISRDNSKNTLYLQMNSLRAEDTAVYYCARVGYGGNSDYWGQGTLVTVSS
VL: DIQMTQSPSSVSASVGDRLTIICRASQDINRWLAWYQQTPGNAPKLLIHWATSLQSGVPSRFSGSGSGTDFTLTINSLQPEDFATYYCQQADSFPLTFGGGTKVEIK
B17: C5A (XPA23) VL H49L (antibody, V domains shown)
VH: EVQLLESGGGLVQPGGSLRLSCAASGFTFSKYFMFWVRQAPGKGLEWVSVISPSGGMTRYADSVKGRFTISRDNSKNTLYLQMNSLRAEDTAVYYCARVGYGGNSDYWGQGTLVTVSS
VL: DIQMTQSPSSVSASVGDRLTIICRASQDINRWLAWYQQTPGNAPKLLILSATSLQSGVPSRFSGSGSGTDFTLTINSLQPEDFATYYCQQADSFPLTFGGGTKVEIK
B18: C5A (XPA23) VL R31I (antibody, V domains shown)
VH: EVQLLESGGGLVQPGGSLRLSCAASGFTFSKYFMFWVRQAPGKGLEWVSVISPSGGMTRYADSVKGRFTISRDNSKNTLYLQMNSLRAEDTAVYYCARVGYGGNSDYWGQGTLVTVSS
VL: DIQMTQSPSSVSASVGDRLTIICRASQDINIWLAWYQQTPGNAPKLLIHSATSLQSGVPSRFSGSGSGTDFTLTINSLQPEDFATYYCQQADSFPLTFGGGTKVEIK
B19: C5A (XPA23) VL S50V (antibody, V domains shown)
VH: EVQLLESGGGLVQPGGSLRLSCAASGFTFSKYFMFWVRQAPGKGLEWVSVISPSGGMTRYADSVKGRFTISRDNSKNTLYLQMNSLRAEDTAVYYCARVGYGGNSDYWGQGTLVTVSS
VL: DIQMTQSPSSVSASVGDRLTIICRASQDINRWLAWYQQTPGNAPKLLIHVATSLQSGVPSRFSGSGSGTDFTLTINSLQPEDFATYYCQQADSFPLTFGGGTKVEIK
B20: C5A (XPA23) VL R31A (antibody, V domains shown)
VH: EVQLLESGGGLVQPGGSLRLSCAASGFTFSKYFMFWVRQAPGKGLEWVSVISPSGGMTRYADSVKGRFTISRDNSKNTLYLQMNSLRAEDTAVYYCARVGYGGNSDYWGQGTLVTVSS
VL: DIQMTQSPSSVSASVGDRLTIICRASQDINAWLAWYQQTPGNAPKLLIHSATSLQSGVPSRFSGSGSGTDFTLTINSLQPEDFATYYCQQADSFPLTFGGGTKVEIK
B21: C5A (XPA23) VL R31V (antibody, V domains shown)
VH: EVQLLESGGGLVQPGGSLRLSCAASGFTFSKYFMFWVRQAPGKGLEWVSVISPSGGMTRYADSVKGRFTISRDNSKNTLYLQMNSLRAEDTAVYYCARVGYGGNSDYWGQGTLVTVSS
VL: DIQMTQSPSSVSASVGDRLTIICRASQDINVWLAWYQQTPGNAPKLLIHSATSLQSGVPSRFSGSGSGTDFTLTINSLQPEDFATYYCQQADSFPLTFGGGTKVEIK

The target in this test is binding partner of C5A (XPA23). The test can be described thus: Biacore K-off. On the technique in general: Surface plasmon resonance follows binding to a sensor surface in real time, without labels.
B1: the fold difference in affinity vs original worked out at 0.92 fold.
B2: the fold difference in affinity vs original came to 0.16 fold.
To B3 belongs 0.92 fold.
For B4 the value was 0.21 fold.
Turning to B5, the fold difference in affinity vs original is 0.13 fold.
Turning to B6, the fold difference in affinity vs original is 0.25 fold.
For B7 the value was 0.5 fold.
To B8 belongs 0.14 fold; to B9, 0.43 fold.
To B10 belongs 0.23 fold.
For B11, the fold difference in affinity vs original worked out at 0.86 fold.
For B12 the value was 0.49 fold; for B13, 0.51 fold; for B14, 3.84 fold.
To B15 belongs 0.31 fold; to B16, 0.02 fold.
For B17 the value was 0.07 fold; for B18, 0.68 fold; for B19, 0.21 fold.
Regarding B20, the fold difference in affinity vs original amounted to 8.48 fold.
To B21 belongs 0.44 fold.

For the origin of these results see US20110118447A1.
